Assay results published in article PMC6838142, “Nano-Antagonist Alleviates Inflammation and Allows for MRI of Atherosclerosis” (Nanotheranostics, 2019).
Entries after “also recorded” stand apart in the source; their conditions may differ.

How the values were obtained:
[1] = Dynamic light scattering of nanoparticles; format: physicochemical; settings: Malvern Zetasizer Nano S; for Size (Mean Z average): hydrodynamic diameter
Description: Lipid-peptide conjugates were synthesized from either DSPE-PEG-CO2H or DSPE-PEG-MAL using peptides derived using SVM prediction platform and listed in Supplementary Table S2. The peptides were conjugated to either the N-terminus or via sulfhydryl groups as depicted in Figure 1E. Lipid films from both PEGylated derivatives were prepared by evaporation under nitrogen gas, from 1 µM of lipid solution in chloroform. Tetrapeptides were custom-synthesized by Genscript. 5 µmol of peptide solutions in water:dimethylformamide (1:1) were prepared via a brief bath sonication. […] PEGylated lipids prepared above were sonicated (10 min, 300 W, room temperature) in 5 mL of MES (pH 6, 100 mM) for DSPE-PEG-CO2H and in 5 mL of HEPES buffered saline [HBS] (pH 7.2, 100 mM, 154 mM NaCl) for DSPE-PEG-MAL. Next, DSPE-PEG-CO2H was activated by the addition of 2 mg of EDC (20 mg/mL in water) and 5 mg of sulfo-NHS (10 mg/mL in water). This was sonicated at 15 W for 10 min in a temperature controlled bath at 30 °C. Then, peptide solutions/suspensions were added to the resulting DSPE-PEG-NHS or previously prepared DSPE-PEG-MAL and stirred at room temperature for 4 h. The reaction with DSPE-PEG-NHS was quenched by the addition of 100 µL of 0.5 M of NH2OH in HBS, plus 1 mM EDTA. The reaction with DSPE-PEG-MAL was quenched by the addition of 7 µL of 2-mercaptoethanol. The solution was freezed at -80 °C and lyophilized. Next, lipid-peptide conjugates were extracted with chloroform (3 x 2 mL) and centrifuged at 4000 g x 5 min. Combined extract supernatants were evaporated under N2 gas and sonicated (10 min, 100 W) in 0.5-1 mL of water at room temperature. This raw product was purified by size […] chromatography as follows. Millipore Vantage column (10 x 500 mm) was packed with Sepharose 4B in deionized water under flow rate of 0.5 mL/min. Next, 0.5 mL of raw nanoparticle preparation was injected into the column and 0.5 mL fractions were collected at 0.5 mL/min simultaneously with UV detection at 190, 214, 250 and 280 nm using the Bio Rad DuoFlow system equipped with BioLogic QuadTec UV/Vis detector. See Supplementary Figure S2 for representative chromatograms. Combined fractions 15-31 were frozen and lyophilized. Particles used in signalling In vitro work were prepared by reconstitution of lyophilizates in PBS or HBS buffer via sonication. Particles used in reporter, flow cytometry and microscopy experiments were prepared by addition of 1% (by weight) of Rhodamine-PE in ethanol followed by reconstitution as described above. Particles used in magnetic resonance imaging (MRI) and time-resolved fluorescence (TRF) assays were prepared by addition of 10-20% (by weight) of gadolinium or europium chelate-lipids followed by reconstitution as above. Gadolinium-DTPA (18:0 PE-DTPA) was obtained from Avanti Polar Lipids and europium cryptate-NHS was obtained from Aat Bioquest (Supplementary Table S1). Europium cryptate-NHS was further conjugated to phosphatidylethanolamine (PE) to obtain Eu-cryptate-PE according to published and well established protocols. To confirm peptide conjugation, the powder was reconstituted in 1 mL of chloroform and analyzed with TLC (eluent chloroform:methanol:water 65:25:4) detecting with Molybdenum blue (Supplementary Figure S3A) or Dragendorff reagent (Supplementary Figure S3B). Nanoparticles were characterized by dynamic light scattering using Malvern Zetasizer Nano S (Supplementary Table S3). The presence of the peptide bond (N-H) and aliphatic C-H and C-C stretches (lipids) was confirmed by infrared (IR) spectroscopy. Nanoparticles were isolated as a homogeneous population (peak) in gel-filtration (see above) and were used without additional purification.

[2] = test system: F4/80-positive plaque macrophages; experiment: Immunohistochemistry / plaque macrophage co-staining; format: in vivo, mouse; settings: rhodamine signal, 24 h after injection
Description: Twenty-four hours after nanoparticle injection (see above), mice were euthanized and abdominal aortas were isolated and embedded in Optimal Cutting Temperature compound. After cryotome-sectioning, resulting in 20-30 slides per mouse, 15 slides were sent to Ohio State laser capture microdissection core lab for capture and analysis. The rest of the slides were processed as follows: after fixation in methanol:acetone 50:50 at -20 °C, slides were hydrated in PBS, blocked for 30 min in fish serum (Aqua Block) and stained for 1 h with primary antibodies against F4/80 followed washing and staining with HRP-conjugated secondary antibody for 30 min. DAB peroxidase kit was then used as per manufacturer's instructions followed by mounting. DAB and antibody staining (but not wash steps) was omitted in slides designated for nanoparticle fluorescence visualization. Nanoparticles fluorescence was visualized with Zeiss 510 LSM-meta confocal microscope and 20x objective. DAB F4/80 staining was visualized with Nikon FN1 microscope and same power objective.

[3] = test system: bone marrow derived monocytes, CCL2-induced migration; experiment: CCL2-induced chemotaxis assay; format: cell-based, mouse; settings: pre-treated BMDMs; 100 nM recombinant mouse CCL2, 12 h; nanoparticles
Description: Chemotaxis assays were performed using IBIDI µ-Slides as per the manufacturer's instructions and the recently published guide detailing the protocol. […] Cells were allowed to attach for 3 h at 37 °C, washed with 0.2 mL warm cell culture medium using a pipette tip inserted into µ-channel port, following which 100 nM recombinant mouse CCL2 protein was added as a chemoattractant (or omitted in control slides) to the one of side reservoirs. Cell movement was recorded for a duration of 12 h via phase video-microscopy in a stage-top humidified incubator at 37 °C and 5% CO2 atmosphere. Analysis was performed using the ImageJ IBIDI tracking tool, available free of charge at https://ibidi.com.

[4] = test system: BMDMs; experiment: GSH/GSSG assay in LPS-primed BMDMs; format: cell-based, mouse; settings: LPS-primed (100 ng/mL) BMDMs, 5 µM CCTV vs vehicle, 8 experiments
Description: GSH /GSSG, lactate dehydrogenase (LDH) and DCFDA assays were performed according to the manufacturer's instructions.

[5] = test system: caspase 3 and heme oxygenase (HO-1) proteins in RAW cells; experiment: Immunoblot of active caspase 3 and HO-1; format: cell-based, mouse; settings: 1 µM nanoparticles, 3 h
Description: Immunoblotting was performed as previously described with the following modifications. Briefly, cell lysates were obtained in SDS lysis buffer consisting of 2% SDS, 50 mM Tris-HCl (pH 6.8), 100 mM DTT, 5% Ficoll 400, 0.0001% bromophenol blue and a cocktail of protease inhibitors. Lysates were sonicated on ice before heating at 97 °C for 7 min to completely denature the protein. Protein concentration was determined using IR spectroscopy (which is insensitive to high SDS and DTT concentrations) with a Millipore DirectDetect spectrometer. Lysates were equally loaded at 10-15 µg per lane on BioRad TGX Criterion gels (4-15%) and resolved at 300 V in Tris-Glycine running buffer. Proteins were transferred on nitrocellulose membranes using the BioRad TransBlot turbo according to the manufacturer's instructions. Membranes were blocked in fish serum (Aqua Block) or 5% nonfat dry milk in TBS-T (0.05% Tween 20) and probed overnight at 4 °C with primary antibodies as indicated in Supplementary Table S1. The membranes were washed in TBS-T and incubated with secondary antibodies for 1 h at room temperature. After washing, semi-quantitative visualization of the proteins of interest was enabled using an enhanced chemiluminescence reagent as previously described and the Azure C400 western blot imaging system.
N-acetylcysteine (NAC) served as an antioxidant control. β-Actin was used as a loading control. B) Gene expression analysis in RAW cells treated with 1 µM of vehicle, CCTV and VTCC (peptide nanoparticle control) for 24 h. mRNA expression of mannose receptor (Mrc1), nitric oxide synthase 2 (Nos2), tumor necrosis factor (Tnf), interleukin-1beta (Il1b), and interleukin-6 (Il6) were analyzed. C) Cytokines in cell culture supernatants were analyzed as indicated. D) Schematic representation of transcriptional activation of primary and secondary inflammatory response to lipopolysaccharide (LPS). E) Immunoblot analysis of dose-dependent suppression of IL-1β and HO-1 production by CCTV with and without stimulation by 100 ng/mL LPS for 16 h in bone marrow derived macrophages (BMDMs). GAPDH served as a loading control. F) Chemotaxis assays in bone marrow derived monocytes treated with 5 µM vehicle, CCTV, VTCC or left untreated. Chemotaxis was stimulated by introducing a gradient of recombinant mouse CCL2. Forty (out of 150-300) cell migration tracks are presented for simplicity. Metrics of chemotactic behaviour i.e. velocity, distance travelled, and chemotactic index were quantified as presented in bar graphs. G) BMDMs were pre-treated for 6 h with 5 µM CCTV or VTCC followed by 500 nM CCL2 for the indicated times. […] P values are calculated by t-test and error bars are standard errors of three independent experiments.

[6] = test system: RAW cells
[7] = test system: interleukin-1 beta (IL-1β); settings: CANTOS clinical trial, cited from earlier work
Description: Inflammation is a process of immune system activation that is often accompanied by increased migration of immune cells to a site of injury or disease. Inflammation-driven immune cell migration is orchestrated via chemokine receptor-ligand pairs that are ubiquitously expressed in innate immune cells and are hyperactivated in many pathologies.

Row | Compound | Mean Polydispersity Index (PDI) [1] | Size (Mean Z average) [1] [nm] | other results
1 | LLIA [A3, LLIA peptide-lipid conjugate nanoparticle, N-terminus conjugation] | 0.162 | 134 | –
2 | ALLC [B4, ALLC peptide-lipid conjugate nanoparticle, N-terminus conjugation] | 0.151 | 86 | –
3 | KTIV [A6, KTIV peptide-lipid conjugate nanoparticle, N-terminus conjugation] | 0.054 | 142 | –
4 | VTCC | – | – | Mean Polydispersity Index (PDI) ([1]; listed as C3): 0.148; Size (Mean Z average) ([1]; listed as C3): 167 nm; co-staining with F4/80 in plaque [2]: not VTCC rhodamine signal; CCL2-induced monocyte migration [3]: not seen with VTCC
5 | CC(=O)N[C@@H](CS)C(=O)O [NAC, N-Acetyl-L-cysteine, reference compound] | – | – | GSH levels [4]: In contrast to classic antioxidant NAC, CCTV was unable to restore GSH levels; GSSG levels [4]: In contrast to classic antioxidant NAC, CCTV was unable to restore GSH levels or reduce GSSG
6 | KVSA [A2, KVSA peptide-lipid conjugate nanoparticle, N-terminus conjugation] | 0.124 | 110 | –
7 | HLDK [B3, HLDK peptide-lipid conjugate nanoparticle, N-terminus conjugation] | 0.257 | 61 | –
8 | MDHL [C2, MDHL peptide-lipid conjugate nanoparticle, N-terminus conjugation] | 0.111 | 134 | –
9 | VTCC [A5] | 0.141 | 76 | active (cleaved at Asp175, p19/17) caspase 3 ([5]; listed as N-term VTCC): upregulation; heme oxygenase-1 (HO-1) levels ([5]; listed as N-term VTCC): upregulation; apoptosis and cell death [6]: significant apoptosis and cell death
10 | KISV [A4, KISV peptide-lipid conjugate nanoparticle, N-terminus conjugation] | 0.09 | 114 | –
11 | LLLI [B6, LLLI peptide-lipid conjugate nanoparticle, N-terminus conjugation] | 0.152 | 223 | –
12 | RLAS [A1, RLAS peptide-lipid conjugate nanoparticle, N-terminus conjugation] | 0.198 | 93 | –
13 | QDSM [B5, QDSM peptide-lipid conjugate nanoparticle, N-terminus conjugation] | 0.169 | 198 | –
14 | IVAK [B2, IVAK peptide-lipid conjugate nanoparticle, N-terminus conjugation] | 0.058 | 53 | –
15 | ALLC [C4, ALLC peptide-lipid conjugate nanoparticle, SH conjugation] | 0.002 | 79 | –
16 | DKQT [B1, DKQT peptide-lipid conjugate nanoparticle, N-terminus conjugation] | 0.176 | 204 | –
17 | MKVS [C1, MKVS peptide-lipid conjugate nanoparticle, N-terminus conjugation] | 0.159 | 189 | –
18 | canakinumab: interleukin-1 beta (IL-1β) neutralizing monoclonal antibody | – | – | cardiovascular events ([7]; cardiovascular disease): a reduction in cardiovascular events; risk of death from infection and sepsis [7]: significantly increased risk of death from infection and sepsis
19 | CCTV [N-term CCTV] | – | – | active (cleaved at Asp175, p19/17) caspase 3 [5]: upregulation; also recorded: significant apoptosis-associated caspase-3 activity; heme oxygenase-1 (HO-1) levels [5]: upregulation; also recorded: increased; apoptosis and cell death [6]: significant apoptosis and cell death
